{"source": "paper PMC6821725", "about": "“Unique structure and function of viral rhodopsins” (Nature Communications, 2019)", "key": {"[1]": {"target": "T1, Organic Lake Phycodnavirus rhodopsin II (OLPVRII) (Organic Lake phycodnavirus, UniProt Z9UQ29F7D0)", "T1 construct": "expressed in E. coli SE1 or C41(DE3); monomeric and pentameric fractions in DDM", "experiment": "X-ray crystal structure […] A, in meso; UV-Vis absorption", "type": "binding", "details": "covalent; Schiff base to Lys195; crystals from 0.2 M sodium malonate pH 4.6; spectra in DDM"}, "[2]": {"target": "Asp85 (UniProt position 98, WARYADWLFTT)", "details": "cited from earlier work"}, "[3]": {"target": "OLPVRII triple mutant E26A/R36A/W203A (Organic Lake Phycodnavirus)", "experiment": "SEC"}, "[4]": {"target": "Organic Lake Phycodnavirus rhodopsin II (Organic Lake Phycodnavirus)", "experiment": "cross-linking; glutaraldehyde (10%), DDM-solubilized multimeric SEC fraction, 2 mg/ml protein, 8 h, 4 °C, read by SDS-PAGE"}, "[5]": {"target": "Organic Lake Phycodnavirus rhodopsin II (Organic Lake Phycodnavirus)", "experiment": "SEC"}, "[6]": {"target": "Organic Lake Phycodnavirus rhodopsin II (Organic Lake Phycodnavirus)", "experiment": "cross-linking; glutaraldehyde (10%), monomeric fraction reconstituted into POPC/POPG (4:1 by weight; POPC:POPS in another paragraph) liposomes, 1 mg/ml protein, 8 h, read by SDS-PAGE"}, "[7]": {"target": "Organic Lake Phycodnavirus rhodopsin II (Organic Lake Phycodnavirus)", "experiment": "crystal structure; in meso crystallization in monoolein from the monomeric fraction, 0.2 M sodium malonate pH 4.6, 15% PEG 550 MME, 22 °C; space group P2_(1), five molecules in the asymmetric unit"}}}
{"molecule": "CC1=C(/C=C/C(C)=C/C=C/C(C)=C/C=O)C(C)(C)CCC1", "note": "[all-trans-retinal]", "values": [{"measurement": "X-ray crystal structure 1.9 A, in meso; UV-Vis absorption", "setting": "[1]", "value": "The retinal cofactor is covalently bound to Lys195 through the Schiff base (RSB)"}]}
{"molecule": "Bacteriorhodopsin (bR) (Halobacterium salinarum)", "values": [{"measurement": "pKa", "setting": "[2]", "value": 2.7}]}
{"molecule": "OLPVRII triple mutant E26A/R36A/W203A (natural protein)", "values": [{"measurement": "pentamer:monomer ratio in the elution profile (pentamer:monomer)", "setting": "[3]", "value": 1}, {"measurement": "stoichiometry N", "setting": "[3]", "value": 5}]}
{"molecule": "Organic Lake Phycodnavirus rhodopsin II (natural protein)", "values": [{"measurement": "stoichiometry N", "setting": "[4]", "value": 5}, {"measurement": "pentamer:monomer ratio in the elution profile (pentamer:monomer)", "setting": "[5]", "value": 4}, {"measurement": "stoichiometry N", "setting": "[5]", "value": 5}, {"measurement": "stoichiometry N", "setting": "[6]", "value": 5}, {"measurement": "stoichiometry N", "setting": "[7]", "value": 5}]}
